# B1: Wild-type Mtb Aspartate decarboxylase PanD (PanDWT), cleaved active form (enzyme)
# chain 1: MLRTMLKSKIHRATVTCADLHYVG
# chain 2: SVTIDADLMDAADLLEGEQVTIVDIDNGARLVTYAITGERGSGVIGINGAAAHLVHPGDLVILIAYATMDDARARTYQPRIVFVDAYNKPIDMGHDPAFVPENAGELLDPRLGVG
# notes: not shown: His6, N-terminal, kept; copies: 8 + 8
# Biological target: the molecule itself
# Assay: dynamic light scattering; drug-free; 1 mg/mL PanD in 50 mM Tris pH 7.5, 200 mM NaCl, 298 K; octamer
protein,measurement,value
B1,stoichiometry N,8

# From PMC7125159, “Pyrazinamide triggers degradation of its target aspartate decarboxylase” (Nature Communications, 2020)
